Measurements as given in PMC2917178 (Biochemistry, 2010).
Values joined by “and” are separate entries in the source; they are usually repeats but may differ in a detail not shown here. Equal values may be shown once.

Key:
[1] = target: Rtt109 D288N (with Vps75) (Saccharomyces cerevisiae, UniProt P53853+Q07794, D288N); assay type: biochemical, yeast (Saccharomyces cerevisiae)
[2] = target: Rtt109 D287N (with Vps75) (Saccharomyces cerevisiae, UniProt P53853+Q07794, D287N); assay type: biochemical, yeast (Saccharomyces cerevisiae); details: H3 peptide saturation
[3] = target: T1, Rtt109 D287A/D288A (with Vps75) (Saccharomyces cerevisiae, UniProt P53853+Q07794, D287A/D288A); assay type: biochemical, yeast (Saccharomyces cerevisiae)
[4] = target: T1, Rtt109 D287A/D288A (with Vps75); assay type: biochemical, yeast (Saccharomyces cerevisiae); details: H3 peptide saturation
Esa1 = details: E338Q vs wildtype Esa1, ref [35]; cited from earlier work

T1 sequence (P53853 whole entry, one chain of several): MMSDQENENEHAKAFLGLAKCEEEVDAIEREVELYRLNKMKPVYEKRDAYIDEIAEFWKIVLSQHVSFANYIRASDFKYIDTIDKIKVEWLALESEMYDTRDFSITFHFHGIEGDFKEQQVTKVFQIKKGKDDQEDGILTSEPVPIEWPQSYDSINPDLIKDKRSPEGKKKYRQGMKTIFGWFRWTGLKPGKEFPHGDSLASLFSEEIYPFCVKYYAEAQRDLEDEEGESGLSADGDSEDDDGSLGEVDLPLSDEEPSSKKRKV
Sequence of Rtt109 D288N (with Vps75) (P53853 whole entry, one chain of several): as above
Sequence of Rtt109 D287N (with Vps75) (P53853 whole entry, one chain of several): as above

B1: D288N: single point mutant of Rtt109 (protein, UniProt Q07794 1-436, looked up, variant D288N)
Histone acetyltransferase …: MSLNDFLSSVLPVSEQFEYLSLQSIPLETHAVVTPNKDDKRVPKSTIKTQHFFSLFHQGKVFFSLEVYVYVTLWDEADAERLIFVSKADTNGYCNTRVSVRDITKIILEFILSIDPNYYLQKVKPAIRSYKKISPELISAASTPARTLRILARRLKQSGSTVLKEIESPRFQQDLYLSFTCPREILTKICLFTRPASQYLFPDSSKNSKKHILNGEELMKWWGFILDRLLIECFQNDTQAKLRIPGEDPARVRSYLRGMKYPLWQVGDIFTSKENSLAVYNIPLFPDNPKARFIHQLAEEDRLLKVSLSSFWIELQERQEFKLSVTSSVMGISGYSLATPSLFPSSADVIVPKSRKQFRAIKKYITGEEYDTEEGAIEAFTNIRDFLLLRMATNLQSLTGKREHRERNQPVPASNINTLAITMLKPRKKAKALPKT
[1]; AcCoA
  decrease in kcat/Km for AcCoA: 1000 fold
  decrease of kcat/Km for AcCoA versus wildtype: ~3 orders of magnitude
[1]; AcCoA saturation
  increase in Km for AcCoA versus wildtype: ~16 fold
[1]; H3 peptide saturation
  decrease of kcat versus wildtype: ~50 fold and 50-100 fold

B2: D287N: single point mutant of Rtt109 (protein, UniProt Q07794 1-436, looked up, variant D287N)
Histone acetyltransferase …: MSLNDFLSSVLPVSEQFEYLSLQSIPLETHAVVTPNKDDKRVPKSTIKTQHFFSLFHQGKVFFSLEVYVYVTLWDEADAERLIFVSKADTNGYCNTRVSVRDITKIILEFILSIDPNYYLQKVKPAIRSYKKISPELISAASTPARTLRILARRLKQSGSTVLKEIESPRFQQDLYLSFTCPREILTKICLFTRPASQYLFPDSSKNSKKHILNGEELMKWWGFILDRLLIECFQNDTQAKLRIPGEDPARVRSYLRGMKYPLWQVGDIFTSKENSLAVYNIPLFPNDPKARFIHQLAEEDRLLKVSLSSFWIELQERQEFKLSVTSSVMGISGYSLATPSLFPSSADVIVPKSRKQFRAIKKYITGEEYDTEEGAIEAFTNIRDFLLLRMATNLQSLTGKREHRERNQPVPASNINTLAITMLKPRKKAKALPKT
[2]
  decrease in activity (kcat) versus wildtype: ~10 fold

B3: D287A/D288A: double point mutant of Rtt109 (protein, UniProt Q07794 1-436, looked up, variant D287A D288A)
Histone acetyltransferase …: MSLNDFLSSVLPVSEQFEYLSLQSIPLETHAVVTPNKDDKRVPKSTIKTQHFFSLFHQGKVFFSLEVYVYVTLWDEADAERLIFVSKADTNGYCNTRVSVRDITKIILEFILSIDPNYYLQKVKPAIRSYKKISPELISAASTPARTLRILARRLKQSGSTVLKEIESPRFQQDLYLSFTCPREILTKICLFTRPASQYLFPDSSKNSKKHILNGEELMKWWGFILDRLLIECFQNDTQAKLRIPGEDPARVRSYLRGMKYPLWQVGDIFTSKENSLAVYNIPLFPAAPKARFIHQLAEEDRLLKVSLSSFWIELQERQEFKLSVTSSVMGISGYSLATPSLFPSSADVIVPKSRKQFRAIKKYITGEEYDTEEGAIEAFTNIRDFLLLRMATNLQSLTGKREHRERNQPVPASNINTLAITMLKPRKKAKALPKT
[3]; D287A/D288A kcat pH profile
  downward shift of apparent pKa versus wildtype: ~1 pH unit
[3]; D287A/D288A, ATE buffer, pH 7-9, 25 °C, 400 μM H3 peptide, 60 μM AcCoA, twice in duplicate, Eq. 11
  pKa from kcat pH profile: 7.5 ± 0.1
[4]
  decrease of kcat versus wildtype: ~100 fold and 50-100 fold

B4: E338Q: Esa1 with mutation of the general base catalyst Glu-338 (protein, UniProt Q08649 1-445, looked up, variant E338Q)
Histone acetyltransferase ESA1: MSHDGKEEPGIAKKINSVDDIIIKCQCWVQKNDEERLAEILSINTRKAPPKFYVHYVNYNKRLDEWITTDRINLDKEVLYPKLKATDEDNKKQKKKKATNTSETPQDSLQDGVDGFSRENTDVMDLDNLNVQGIKDENISHEDEIKKLRTSGSMTQNPHEVARVRNLNRIIMGKYEIEPWYFSPYPIELTDEDFIYIDDFTLQYFGSKKQYERYRKKCTLRHPPGNEIYRDDYVSFFEIDGRKQRTWCRNLCLLSKLFLDHKTLYYDVDPFLFYCMTRRDELGHHLVGYFSKEKESADGYNVACILTLPQYQRMGYGKLLIEFSYELSKKENKVGSPQKPLSDLGLLSYRAYWSDTLITLLVEHQKEITIDEISSMTSMTTTDILHTAKTLNILRYYKGQHIIFLNEDILDRYNRLKAKKRRTIDPNRLIWKPPVFTASQLRFAW
Esa1
  upward shift of pKa of ionizable group: 1.4 pH-units
